Assay [1] has as its target T1, rabTFPI K1K2 (rabbit, limits assumed).
T1 construct: also called Rabbit TFPI K1K2
T1 chain: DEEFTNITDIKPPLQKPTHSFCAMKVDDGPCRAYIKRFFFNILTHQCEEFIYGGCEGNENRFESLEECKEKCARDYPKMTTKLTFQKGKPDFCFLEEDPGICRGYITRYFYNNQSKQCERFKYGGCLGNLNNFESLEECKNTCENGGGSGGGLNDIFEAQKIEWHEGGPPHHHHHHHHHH
Nature of the assay: ELISA, TFPI on streptavidin plate. On the technique in general: An ELISA detects its analyte on a solid surface through an enzyme-linked reagent.

Assay [2] addresses T1, rabTFPI K1K2. Description: SPR, antibody ligand, TFPI analyte. On the technique in general: In SPR one partner is held on a chip, and binding of the other changes the refractive index at the surface.

The results in this text go back to patent EP4792830A2 (Pfizer Inc., dated 2026).

B1: mu-hu 4D8 chimera (antibody, human IgG1, kappa)
heavy: EVLLQQSGPELVKPGASVKIPCKASGYTFTDYNLDWVKQSHGKSLEWIGDINPINGATLYNQKFKGKATLTVDQSSSTAYMELRSLTSEDTAVYYCSIYYGDYDAMDYWGQGASVTVSSASTKGPSVFPLAPSSKSTSGGTAALGCLVKDYFPEPVTVSWNSGALTSGVHTFPAVLQSSGLYSLSSVVTVPSSSLGTQTYICNVNHKPSNTKVDKKVEPKSCDKTHTCPPCPAPEAAGAPSVFLFPPKPKDTLMISRTPEVTCVVVDVSHEDPEVKFNWYVDGVEVHNAKTKPREEQYNSTYRVVSVLTVLHQDWLNGKEYKCKVSNKALPAPIEKTISKAKGQPREPQVYTLPPSREEMTKNQVSLTCLVKGFYPSDIAVEWESNGQPENNYKTTPPVLDSDGSFFLYSKLTVDKSRWQQGNVFSCSVMHEALHNHYTQKSLSLSPG
light: DIVMTQSHKFMSTSVGDRVSITCKASQDVHTAVAWYQQKPGQSPRLLIYWASTRHTGVPDRFTGCGSGTDYTLTISSVQAEDLALYYCQQHYTTPYTFGGGTKLEMKRTVAAPSVFIFPPSDEQLKSGTASVVCLLNNFYPREAKVQWKVDNALQSGNSQESVTEQDSKDSTYSLSSTLTLSKADYEKHKVYACEVTHQGLSSPVTKSFNRGEC
notes: Mouse variable regions on human IgG1 3M and human kappa constant regions; also called hu-mu 4D8 chimera; mouse-human chimeric antibody 4D8
For orientation: EC50 means the midpoint of the concentration-response curve. For orientation: Kd means the constant that tells how readily two partners part at equilibrium. A high value points to a looser complex. As usually defined, the koff is a measure of how fast the partners let go of each other. High values mean a short-lived complex, low ones a long-lived complex. A word on the kon: it is the second-order rate constant of association. In turn, B1 came in with an EC50 in assay [1] of 0.068 nM. Besides, in assay [2], the Kd is 0.63 nM, the koff is 0.00126 s⁻¹ and the kon was found to be 2.01e+06 M⁻¹ s⁻¹.
